These results are taken from publication PMC3848981 (PLoS Biology, 2013).

One series concerns the target T1, TRAF4 (Homo sapiens, UniProt Q9BUZ4).
T1 construct: TRAF domain (TRAF-6His), homotrimer
T1 sequence (Q9BUZ4 283-470): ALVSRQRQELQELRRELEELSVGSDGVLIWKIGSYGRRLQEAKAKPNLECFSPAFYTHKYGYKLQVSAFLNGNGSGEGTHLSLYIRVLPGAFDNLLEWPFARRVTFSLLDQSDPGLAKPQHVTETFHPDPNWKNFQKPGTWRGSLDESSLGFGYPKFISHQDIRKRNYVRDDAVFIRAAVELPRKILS
Kind of series: isothermal titration calorimetry. Format: binding. In general terms: In ITC the heat of successive injections is recorded.

Series [1] concerns the molecule itself. Kind of series: native MS; ESI-TOF in native condition, TRAF-6His alone (no lipid), 20 pmol/µL protein in ammonium bicarbonate buffer (100 mM NH4HCO3 pH 8).
Series [2] deals with the molecule itself. Kind of series: SEC + other: dynamic light scattering; gel filtration of 1 ml containing 1 mg WT or 0.3 mg K345E TRAF domain; DLS with 20 µM protein at 25°C in 10 mM Tris pH 7.5, 150 mM NaCl. A general note: Size exclusion chromatography separates by hydrodynamic size, large species first.

Where a chain is given by its changes, count along the chain named. In names and notes the source's numbering stands.

As a reminder, the Kd is the free concentration of one partner at which half of the binding sites on the other are occupied at equilibrium, for simple one-to-one binding. A high value points to weaker binding. Broadly, the stoichiometry N is the number of molecules, sites or subunits per partner or assembly.

With `O=P(O)(O)O[C@H]1[C@H](O)[C@@H](OP(=O)(O)O)[C@H](OP(=O)(O)O)[C@@H](OP(=O)(O)O)[C@H]1O` [IP4, inositol-(1,3,4,5)-tetrakisphosphate], at TRAF4, binding was characterised by a dissociation constant (Kd) of 5.68 µM.

B1: TRAF domain of human TRAF4 fused to a 6His tag (TRAF-6His) (domain or fragment, UniProt Q9BUZ4 283-470, looked up)
chain: T1 sequence (Q9BUZ4 283-470)
notes: Tumor necrosis factor receptor-associated factor 4 (TRAF4), human, TRAF domain; the crystal structure includes residues 283-470 of the TRAF domain; Printed monomer mass 22.6 kDa; also called TRAF4-TRAF domain; WT TRAF domain
B1: the “stoichiometry N” value in series [1] was 3.

B2: K345E mutant TRAF domain of TRAF4 (domain or fragment, human, UniProt Q9BUZ4 283-470, looked up)
chain: T1 sequence (Q9BUZ4 283-470) with K63E
notes: Tumor necrosis factor receptor-associated factor 4 (TRAF4), human, TRAF domain with K345E; same limits as the wild-type TRAF domain, whose structure includes residues 283-470; also called TRAF-K345E; TRAF-6HIS K345E; source: E. coli, purified
B2: the “stoichiometry N” value in series [2] stood at 3.
